The source of these data is patent publication US10815297B2, “Antagonists of IL17C for the treatment of inflammatory disorders” (MorphoSys AG, priority 2011, dated 2020).

Test [1] deals with Balb/c N mice, IMQ induced psoriasis. The test can be described thus: Imiquimod (IMQ) psoriasis-like mouse model. The class given is in vivo. The note with it: 10 mg/kg i.p., 3 days before and at D0. The text has this: The pro-inflammatory function of IL17C in the skin was examined in a non-infectious cutaneous inflammation mouse model of psoriasis where topical TLR7-TLR8 agonist Imiquimod induces psoriatic skin lesions characterized by epidermal proliferation and leukocyte infiltration, which are dependent on pathogenic TH17 cytokines (Van der Fits et al., J of Immunol. 2009 May 1; 182(9):5836-45.). The role of IL17C in this particular model was recently documented (Ramirez-Carrozzi et al, Nat Immunol. 2011 12(12):1159-66) and a convincing genetic proof of the IL17C role in the disease model was provided with IL17C^−/− mice. […]
In order to induce a psoriatic-like response, a daily topical dose of 62.5 mg of Imiquimod cream on the shaved back and the right ear for 5 consecutive days (D0-D4), translating in a daily dose of 3.13 mg of the active compound. The control group was constituted with mice receiving the same quantity of Vaseline cream. […] Body weight was daily recorded. At necropsy and at the days indicated, the ears and the back skin thicknesses were measured using a micrometer (Mitutoyo). […] Spleen and thymus weight was measured.
Mice were randomly divided into equal groups (n=10). […] The control group was constituted with control mice receiving the same quantity of Vaseline. […]

Test [2] deals with TS-exposed mice (C57BL/6J), pulmonary inflammation. The test can be described thus: Tobacco smoke model, cells recovered in bronchoalveolar lavage. The class given is in vivo, mouse. As for the experimental part:
The response consisted of significant increases in the numbers of macrophages, epithelial cells, neutrophils and lymphocytes recovered in BAL.
Vehicle (PBS), MOR12743 and MOR03207 were administered i.p., 1 h prior to TS-exposure on days 1, 4, 7 and 10 of the study. Roflumilast was administered p.o., 1 h prior to each TS-exposure.
In this exposure protocol, mice were exposed in groups of 5 in clear polycarbonate chambers (27 cm×16 cm×12 cm). The TS from ‘Marlboro 100’ cigarettes was allowed to enter the exposure chambers at a flow rate of 100 mL/min. In order to minimise any potential problems caused by repeated exposure to a high level of TS, the exposure period to TS was increased initially from 25 minutes at the start of the study (day 1) to a maximum of 45 minutes on day 3. The exposure schedule used in this study was as follows:
The trachea was cannulated using a 10 mm long Luer fitting stainless steel cannula. Phosphate buffered saline (PBS) was used as the lavage fluid. A volume of 0.4 mL was gently instilled and withdrawn 3 times using a 1 mL syringe and then placed in an Eppendorf tube and kept on ice prior to subsequent determinations.
Lavage fluid was separated from cells by centrifugation (6 min at 3400 rpm, RCF=3070×g—‘Eppendorf Mini Spin’) and the supernatant decanted and frozen for possible subsequent analysis. The cell pellet was re-suspended in a known volume of PBS and total cell numbers calculated by counting a stained (Turks stain) aliquot under a microscope using a haemocytometer.
The residual cell pellet was diluted to approximately 10^5 cells per mL. A volume of 500 μl was placed in the funnel of a cytospin slide and centrifuged for 8 min at 800 rpm, RCF=72.26×g (Shandon Cytospin 3). The slide was air-dried and stained using Wrights/Giemsa stain as per the proprietary instructions. When dried and cover-slipped, differential cell-counts were performed using light microscopy. Approximately 400 cells were counted for each slide. Cells were identified using standard morphometric techniques.
In this study, 4 groups of mice were subjected to daily TS-exposure for 11 days and were sacrificed on the 12th day, 24 h after the final TS-exposure. Three groups received either vehicle (D-PBS), MOR12743 or MOR03207, i.p., 1 h prior to TS-exposure on days 1, 4, 7 and 10 of the study. One group received Roflumilast, p.o., 1 h prior to each TS-exposure. A further group was exposed to air for 11 consecutive days and sacrificed on the 12th day, 24 h after the final air-exposure. This group received vehicle (D-PBS), i.p., 1 h prior to exposure on days 1, 4, 7 and 10 of the study. For all groups n=10.
All mice were killed on day 12, by intra-peritoneal barbiturate anaesthetic overdose, 24 h after final exposure to air or TS. A blood sample was taken over heparin from the sub-clavian vein and the plasma separated by centrifugation and stored at −40° C. A BAL was performed using 0.4 mL of phosphate buffered saline (PBS). Cells recovered from the BAL were used for the total cell and differential cell counts. The BAL supernatants and remaining cell pellet were stored at −40° C. and −80° C. respectively for possible future analysis. Following BAL, the cannula was left tied in place. The heart and lungs were removed after gently opening the thorax and cutting down either side of the sternum and ribs. The left lobe was tied off, removed, snap-frozen and stored at −80° C. The right lobe was inflated with 10% phosphate buffered formalin (PBF) to a pressure of 18 cm of PBF for 20 minutes. The trachea was then ligated below the cannula and the cannula removed. The heart, lung & trachea were immersed in PBF.
The data were therefore initially subjected to a one-way analysis of variance test (ANOVA), followed by a Bonferroni correction for multiple comparisons in order to test for statistically significant differences between treatment groups. A “p” value of <0.05 was considered to be statistically significant. […]

Setting [3] is: 5 mg/kg i.p. on days 1, 4, 7 & 10.

B1: MOR12743: anti-mouse IL17C HuCAL antibody; CDRs SEQ ID NO: 31-36, VL 37, VH 38; human/mouse chimeric IgG2a (antibody, V domains shown)
VH: QVQLVQSGAEVKKPGASVKVSCKASGYTFTSNFIHWVRQAPGQGLEWMGWISPYNGDTNYAQKFQGRVTMTRDTSISTAYMELSRLRSEDTAVYYCARESVYYGSDYGYNGMDIWGQGTLVTVSS
VL: DIELTQPPSVSVSPGQTASITCSGDNLGEEYVSWYQQKPGQAPVLVIYDDTKRPSGIPERFSGSNSGNTATLTISGTQAEDEADYYCASWDLWSVEVFGGGTKLTVLGQ
modifications: mouse IgG2a constant regions; VH; VL
Consider B1, for which the “effect on epidermal thickness induced by IMQ in the mouse ear skin (histology)” value in test [1] is “significant”. Also, in test [2] (setting [3]), the “Inhibition of epithelial cells in BAL” value is 52%, the “Inhibition of lymphocytes in BAL” value amounted to 24%, the “Inhibition of macrophages in BAL” value amounted to 6% and the “Inhibition of neutrophils in BAL” value is on record as 48%. Moreover, in test [2] (5 mg/kg i.p. on days 1, 4, 7 & 10, 1 h prior to TS-exposure, BAL 24 h after last of 11 daily exposures), the “Inhibition of total cells in BAL” value was 26%.
